The values below come from PMC10700433 (Cancer Immunology, Immunotherapy : CII, 2023).

Assay [1] deals with T1, ATOR-1017 (evunzekibart) (human).
T1 construct: as the VH of Wm14, which is in PDB 8OZ3 (amino acids 2-118 modelled); human IgG4 heavy chain constant region, S228P stabilised; as the VL of Wm14, which is in PDB 8OZ3 (amino acids 2-110 modelled); light chain constant region; IgG4 (S228P)
The assay is described as follows: BLI; Octet RED96; antibodies captured on FABG2 biosensor tips, recombinant Fcγ receptors in solution at suitable concentration ranges; association and dissociation at physiological pH. The conditions noted are these: both partners purified.

Assay [2] addresses T1, ATOR-1017 (evunzekibart). The assay is described as follows: BLI; Octet RED96; antibodies captured on FABG2 biosensor tips, recombinant FcRn in solution; association studied at physiological pH, dissociation at pH6. The conditions noted are these: both partners purified.
Assay [3] has as its target T2, cynomolgus 4-1BB/TNFRSF9-His (Macaca fascicularis, UniProt A9YYE7).
T2 construct: cynomolgus 4-1BB (TNFRSF9), recombinant His-tagged protein from Acro; source: bought: Acro
The experiment in a line: BLI; Octet Red96 (ForteBio); who was immobilised not stated. The conditions noted are these: both partners purified.

Another assay deals with T3, human CD137-His (Homo sapiens, UniProt Q07011).
T3 construct: human 4-1BB (CD137, TNFRSF9), recombinant His-tagged protein from Acro; also called human 4-1BB; TNFRSF9; source: bought: Acro
T3 sequence (Q07011 24-186): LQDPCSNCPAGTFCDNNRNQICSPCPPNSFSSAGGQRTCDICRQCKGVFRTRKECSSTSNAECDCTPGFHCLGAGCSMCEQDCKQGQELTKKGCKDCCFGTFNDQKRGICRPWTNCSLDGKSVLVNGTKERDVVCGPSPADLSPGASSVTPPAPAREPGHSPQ
Described as above. As to conditions: both partners purified.

Assay [4] has as its target T4, cynomolgus 4-1BB expressed on CHO-K1 cells (Macaca fascicularis, UniProt A9YYE7).
T4 construct: cynomolgus 4-1BB (TNFRSF9) from a gene in pcDNA3.1 (GenScript); also called CHO-cy4-1BB; cy4-1BB-CHO; source: CHO-K1, stably transfected (pcDNA3.1), on cells
The assay is described as follows: flow cytometry on cells; CHO-K1 cells stably expressing human or cynomolgus 4-1BB incubated with serially diluted ATOR-1017; detected with goat anti-hIg Fc-PE; MFI. The conditions noted are these: one partner purified.

In assay [5] the target is T5, human 4-1BB expressed on CHO-K1 cells (human, UniProt Q07011).
T5 construct: human 4-1BB (CD137, TNFRSF9) from a gene in pcDNA3.1 (GenScript); also called CHO-hu4-1BB; hu4-1BB-CHO; source: CHO-K1, stably transfected (pcDNA3.1), on cells
T5 sequence (Q07011 24-255): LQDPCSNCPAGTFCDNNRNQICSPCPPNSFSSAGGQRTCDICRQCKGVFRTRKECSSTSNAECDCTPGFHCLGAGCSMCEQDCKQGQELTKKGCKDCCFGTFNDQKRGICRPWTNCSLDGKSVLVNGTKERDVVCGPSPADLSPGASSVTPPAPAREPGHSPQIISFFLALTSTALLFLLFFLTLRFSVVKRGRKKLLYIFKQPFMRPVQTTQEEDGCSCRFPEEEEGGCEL
The assay is described as above. As to conditions: one partner purified.

B1: mouse FcγRIII (receptor)
chain: ALPKAVVKLDPPWIQVLKEDMVTLMCEGTHNPGNSSTQWFHNGRSIRSQVQASYTFKATVNDSGEYRCQMEQTRLSDPVDLGVISDWLLLQTPQRVFLEGETITLRCHSWRNKLLNRISFFHNEKSVRYHHYKSNFSIPKANHSHSGDYYCKGSLGSTQHQSKPVTITVQDPATTSSISLVWYHT
modifications: soluble ectodomain assumed for BLI
Take B1: in the assay with ATOR-1017 (evunzekibart) [1], the Kd was found to be 0.1 µM.

B2: mouse FcRn (receptor)
chain 1: SETRPPLMYHLTAVSNPSTGLPSFWATGWLGPQQYLTYNSLRQEADPCGAWMWENQVSWYWEKETTDLKSKEQLFLEALKTLEKILNGTYTLQGLLGCELASDNSSVPTAVFALNGEEFMKFNPRIGNWTGEWPETEIVANLWMKQPDAARKESEFLLNSCPERLLGHLERGRRNLEWKEPPSMRLKARPGNSGSSVLTCAAFSFYPPELKFRFLRNGLASGSGNCSTGPNGDGSFHAWSLLEVKRGDEHHYQCQVEHEGLAQPLTVDLDSSARSS
chain 2: IQKTPQIQVYSRHPPENGKPNILNCYVTQFHPPHIEIQMLKNGKKIPKVEMSDMSFSKDWSFYILAHTEFTPTETDTYACRVKHASMAEPKTVYWDRDM
modifications: soluble Fcgrt/B2m heterodimer assumed by convention; B2m not given
On to B2, for which, in the assay with ATOR-1017 (evunzekibart) [2], the Kd was found to be 0.2 µM.

B3: ATOR-1017 (evunzekibart) (antibody, V domains shown)
VH: EVQLLESGGGLVQPGGSLRLSCAASGFNFGYSYMSWVRQAPGKGLEWVSSIGSTSSHTYYADSVKGRFTISRDNSKNTLYLQMNSLRAEDTAVYYCARVYSSPGIDYWGQGTLVTVSS
VL: DIQMTQSPSSLSASVGDRVTITCRASQSIGSTLNWYQQKPGKAPKLLIYGASSLQSGVPSRFSGSGSGTDFTLTISSLQPEDFATYYCQQYYTWVPFTFGQGTKLEIK
notes: the variable domains stand in the scFv of PDB 8OZ3 (heavy chain amino acids 2-118 modelled); human IgG4 constant part, S228P stabilized; the variable domains stand in the scFv of PDB 8OZ3 (light chain amino acids 2-110 modelled); light chain constant domain; IgG4 (S228P); variable domains from the human scFv library ALLIGATOR-GOLD, optimized
On to B3, for which the Kd in assay [3] was found to be 0.0002 µM; with human CD137-His it was 0.0001 µM. The concentration for a half-maximal effect (EC50) in assay [4] and in assay [5] was 0.0005 µM in each case.

B4: mouse FcγRIIb (receptor)
chain: THDLPKAVVKLEPPWIQVLKEDTVTLTCEGTHNPGNSSTQWFHNGRSIRSQVQASYTFKATVNDSGEYRCQMEQTRLSDPVDLGVISDWLLLQTPQLVFLEGETITLRCHSWRNKLLNRISFFHNEKSVRYHHYSSNFSIPKANHSHSGDYYCKGSLGRTLHQSKPVTITVQGPKSSRSLP
modifications: soluble ectodomain assumed for BLI
As for B4, in the assay with ATOR-1017 (evunzekibart) [1], the Kd stood at 0.3 µM.

B5: mouse FcγRIV (receptor)
chain: GLQKAVVNLDPKWVRVLEEDSVTLRCQGTFSPEDNSIKWFHNESLIPHQDANYVIQSARVKDSGMYRCQTALSTISDPVQLEVHMGWLLLQTTKWLFQEGDPIHLRCHSWQNRPVRKVTYLQNGKGKKYFHENSELLIPKATHNDSGSYFCRGLIGHNNKSSASFRISLGDPGSPSMFPPWHQ
modifications: soluble ectodomain assumed for BLI
As to B5, the Kd in the assay with ATOR-1017 (evunzekibart) [1] was 0.4 µM.
